Data reported in publication PMC6410682.

Molecular target: 15N-labeled AR DBD (human, UniProt P10275 558-648)
Test: NMR

15N-labeled AR DBD, sequence (P10275 558-648): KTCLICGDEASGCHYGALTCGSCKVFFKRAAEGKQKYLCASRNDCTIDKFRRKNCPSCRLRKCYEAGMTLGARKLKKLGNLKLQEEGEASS

B1: ADR3 DNA duplex (NMR) (dsDNA)
DNA 1: CCAGAACATCAAGAACAC
DNA 2: GTGTTCTTGATGTTCTGG
Does B1 bind?
Result: binds
